Assay results from patent US20210253718A1, “FRIZZLED5 PROTEIN-BINDING AGENTS” (Modmab Therapeutics Corporation, priority 2016, published 2021).

T1: FZD10 CRD (Homo sapiens, UniProt Q9ULW2)
T1 construct: 30-156; GPI anchor signal (C); expressed in transfected cells; host or cells: CHO cells, lentiviral pLenti-puro
T1 sequence (Q9ULW2 30-156): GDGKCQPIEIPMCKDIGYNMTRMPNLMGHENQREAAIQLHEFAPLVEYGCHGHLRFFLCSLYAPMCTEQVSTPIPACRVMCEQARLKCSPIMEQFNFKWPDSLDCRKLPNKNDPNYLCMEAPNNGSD

T2: FZD3 CRD (Homo sapiens, UniProt Q9NPG1)
T2 construct: CRD of FZD1, FZD2, FZD3, FZD4, FZD5, FZD6, FZD7, FZD8, FZD9 or FZD10; GPI anchor signal (C); expressed in transfected cells; host or cells: CHO cells, lentiviral pLenti-puro
T2 sequence (Q9NPG1 23-136 limits assumed): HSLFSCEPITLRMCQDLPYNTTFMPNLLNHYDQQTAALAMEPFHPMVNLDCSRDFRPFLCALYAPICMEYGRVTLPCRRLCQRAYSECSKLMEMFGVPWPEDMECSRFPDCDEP

T3: FZD4 CRD (Homo sapiens, UniProt Q9ULV1)
T3 construct: E42-V167; GPI anchor signal (C); expressed in transfected cells; host or cells: CHO cells, lentiviral pLenti-puro
T3 sequence (Q9ULV1 42-167): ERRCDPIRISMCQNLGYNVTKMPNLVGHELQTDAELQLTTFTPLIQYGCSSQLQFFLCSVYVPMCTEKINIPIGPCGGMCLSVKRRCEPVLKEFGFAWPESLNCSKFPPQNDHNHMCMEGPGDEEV

T4: FZD5 CRD (Homo sapiens, UniProt Q13467)
T4 construct: K29-T156; GPI anchor signal (C); expressed in transfected cells; host or cells: CHO cells, lentiviral pLenti-puro
T4 sequence (Q13467 29-156): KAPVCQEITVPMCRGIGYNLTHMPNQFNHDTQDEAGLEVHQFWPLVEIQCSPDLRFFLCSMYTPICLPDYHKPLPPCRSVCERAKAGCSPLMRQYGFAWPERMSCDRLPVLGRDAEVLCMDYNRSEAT

T5: FZD6 CRD (Homo sapiens, UniProt O60353)
T5 construct: S20-P146; GPI anchor signal (C); expressed in transfected cells; host or cells: CHO cells, lentiviral pLenti-puro
T5 sequence (O60353 20-146): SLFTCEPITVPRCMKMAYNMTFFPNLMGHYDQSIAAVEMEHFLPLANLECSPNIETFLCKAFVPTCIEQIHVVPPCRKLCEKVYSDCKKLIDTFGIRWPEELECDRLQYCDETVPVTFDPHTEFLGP

T6: FZD8 CRD (Homo sapiens, UniProt Q9H461)
T6 construct: K31-D155; GPI anchor signal (C); expressed in transfected cells; host or cells: CHO cells, lentiviral pLenti-puro
T6 sequence (Q9H461 31-155): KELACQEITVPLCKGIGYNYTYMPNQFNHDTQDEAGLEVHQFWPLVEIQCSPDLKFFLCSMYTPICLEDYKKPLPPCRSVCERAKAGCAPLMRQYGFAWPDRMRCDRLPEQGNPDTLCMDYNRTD


Experiments:
FZD10 CRD = biological target: T1, FZD10 CRD; assay: Immunofluorescence of anti-FZD5 Fab binding to CHO cells overexpressing Frizzled CRD; design: key: −: no binding; +: very weak binder; ++: weak binder; +++: good binder; ++++: very good binder
In short: (§1)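 Immunofluorescence readout of anti-FZD5 Fab staining on CHO cells ectopically overexpressing a single Frizzled cysteine-rich domain. Each CRD was fused to a myc tag and GPI anchor for plasma-membrane display; flow cytometry was run in parallel.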

FZD3 CRD = biological target: T2, FZD3 CRD; assay: as above; design: key: −: no binding; +: very weak binder; ++: weak binder; +++: good binder; ++++: very good binder
In short: as §1

FZD4 CRD = biological target: T3, FZD4 CRD; assay: as above; design: key: −: no binding; +: very weak binder; ++: weak binder; +++: good binder; ++++: very good binder
In short: as §1

FZD5 CRD = biological target: T4, FZD5 CRD; assay: as above; design: key: −: no binding; +: very weak binder; ++: weak binder; +++: good binder; ++++: very good binder
In short: as §1

FZD6 CRD = biological target: T5, FZD6 CRD; assay: as above; design: key: −: no binding; +: very weak binder; ++: weak binder; +++: good binder; ++++: very good binder
In short: as §1

FZD8 CRD = biological target: T6, FZD8 CRD; assay: as above; design: key: −: no binding; +: very weak binder; ++: weak binder; +++: good binder; ++++: very good binder
In short: as §1

ASPC-1 cells = assay: Effect of anti-FZD5 Fabs on proliferation of pancreatic cancer cell lines (percent growth inhibition); assay type: cell-based, human; details: Fab 2 μg/ml
RWP1 cells = assay: as above; assay type: cell-based, human; details: Fab 2 μg/ml

Molecule | Immunofluorescence binding, Frizzled CRD overexpressed on CHO cells: FZD10 (FZD10 CRD) | Immunofluorescence binding, Frizzled CRD overexpressed on CHO cells: FZD3 (FZD3 CRD) | Immunofluorescence binding, Frizzled CRD overexpressed on CHO cells: FZD4 (FZD4 CRD) | Immunofluorescence binding, Frizzled CRD overexpressed on CHO cells: FZD5 (FZD5 CRD) | Immunofluorescence binding, Frizzled CRD overexpressed on CHO cells: FZD6 (FZD6 CRD) | Immunofluorescence binding, Frizzled CRD overexpressed on CHO cells: FZD8 (FZD8 CRD) | percent growth inhibition, ASPC-1 2 μg/ml (ASPC-1 cells) | percent growth inhibition, RWP1 2 μg/ml (RWP1 cells)
Fab-2915: anti-FZD5 Fab with antibody variable region Fv-2915; CDR SEQ ID NOs: 35, 36, 54, 93, 130, 166 (antibody, V domains shown) VH: EVQLVESGGGLVQPGGSLRLSCAASGFNIYYYSMHWVRQAPGKGLEWVASIYSSYGYTSYADSVKGRFTISADTSKNTAYLQMNSLRAEDTAVYYCARGYHYYPYYSGLDYWGQGTLVTVSS VL: DIQMTQSPSSLSASVGDRVTITCRASQSVSSAVAWYQQKPGKAPKLLIYSASSLYSGVPSRFSGSRSGTDFTLTISSLQPEDFATYYCQQAYYHSLITFGQGTKVEIK | − | − | − | +++ | − | + | 5.51% | 48.66%
Fab-2918: anti-FZD5 Fab with antibody variable region Fv-2918; CDR SEQ ID NOs: 35, 36, 57, 96, 133, 169 (antibody, V domains shown) VH: EVQLVESGGGLVQPGGSLRLSCAASGFNLSYSSIHWVRQAPGKGLEWVASIYSSYSSTSYADSVKGRFTISADTSKNTAYLQMNSLRAEDTAVYYCARFGYWAIDYWGQGTLVTVSS VL: DIQMTQSPSSLSASVGDRVTITCRASQSVSSAVAWYQQKPGKAPKLLIYSASSLYSGVPSRFSGSRSGTDFTLTISSLQPEDFATYYCQQAFGASLFTFGQGTKVEIK | − | − | − | ++++ | − | + | 44.67% | 3.49%
Fab-2916: anti-FZD5 Fab with antibody variable region Fv-2916; CDR SEQ ID NOs: 35, 36, 55, 94, 131, 167 (antibody, V domains shown) VH: EVQLVESGGGLVQPGGSLRLSCAASGFNISYSSIHWVRQAPGKGLEWVASIYPSYSYTYYADSVKGRFTISADTSKNTAYLQMNSLRAEDTAVYYCARYGYYGMDYWGQGTLVTVSS VL: DIQMTQSPSSLSASVGDRVTITCRASQSVSSAVAWYQQKPGKAPKLLIYSASSLYSGVPSRFSGSRSGTDFTLTISSLQPEDFATYYCQQWYHYPYLITFGQGTKVEIK | − | − | − | ++++ | − | + | 44.03% | 1.68%
